Patent publication CN114349852A

Experiments:
[1] = molecular target: H3N2流感病毒血凝素蛋白 (A/Texas/50/2012) (H3N2 influenza A virus (A/Texas/50/2012)); assay: indirect ELISA on coated H3N2 hemagglutinin, ascites
[2] = molecular target: H3N2流感病毒血凝素蛋白 (A/Texas/50/2012) (H3N2 influenza A virus (A/Texas/50/2012)); assay: indirect ELISA on coated H3N2 hemagglutinin, hybridoma culture supernatant

B1: 抗H3N2流感病毒血凝素蛋白单克隆抗体ZJU32-01 (antibody, V domains shown)
VH: QVQLQQSGAELMKPGASVKISCKATGYIFSSYWIEWVKQRPGHGLEWIGEILPGSGRTNYKEIFKGKATFTADTSSNTAYMQLSSLTSEDSAVYYCARTRTTGSSDWGQGTTLTVSS
VL: DVLMTQTPLSLPVSLGDQASISCRSSQTTVHSNGNTYLEWYLQKPGQSPKLLIYKVSNRFFGVPDRFSGSGSGTDFTLKISRVEAEDLGVYYCFQGSHVPYTFGGGTKLEIK
In the case of B1, the 效价 (ELISA titer) (dilution (1:x)) [1] is reported as 2048 and the 效价 (ELISA titer) (dilution (1:x)) [2] is reported as 64.
